Target: Microtubules polymerized from purified porcine brain tubulin (porcine) (UniProt P02550)
Test: co-sedimentation

“GST-TAOK2-C (1,187–1,235) (from UniProt Q9UL54 1187-1235) (domain or fragment)” showed a Kd of 670 nM.

From publication PMC8699727
